This is an account of results in patent publication US20230399394A1 (SUNSHINE GUOJIAN PHARMACEUTICAL SHANGHAI, published 2023).

In test [1] the target is T1, Human IL-33-his (human, UniProt O95760 112-270, biotinylated with EZ-Link NHS-Biotin where used as IL-33-his-biotin).
T1 construct: Used plain (SPR, cell assays) and biotinylated (ELISA); also called IL-33-his-biotin
T1 sequence: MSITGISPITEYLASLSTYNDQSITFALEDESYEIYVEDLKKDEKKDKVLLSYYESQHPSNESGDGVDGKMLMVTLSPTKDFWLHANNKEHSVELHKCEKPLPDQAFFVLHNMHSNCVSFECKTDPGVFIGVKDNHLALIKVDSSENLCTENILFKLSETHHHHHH
Put plainly: SPR Biacore 8K as Example 14, antibody captured, antigen as analyte. The protocol:
(§1) A chip with covalently coupled Protein A/G (purchased from GE Healthcare, catalog number BR-1005-30) was used to capture each antibody to be tested, and the relevant operating parameters were as follows: The antibody concentration was […], the contact time was 75 s, the flow rate was […], and the regeneration contact time was 30 s. The IL-33-his antigen was diluted with HBS-EP pH7.4 buffer solution (purchased from GE Healthcare, catalog number BR-1006-69). The maximum concentration was 50 nM, and diluted to 0.39 nM by two-fold dilution. Duplicate wells and 0 concentration point well were set, and 6M guanidine hydrochloride solution was used as the regeneration buffer. The sample was injected on Biacore 8K according to the following parameters, the binding time was 180 s, the dissociation time was 900 s, the flow rate was 30 μL/min, and the regeneration contact time was 30 s. After running, Biacore 8K Evaluation Software was used to analyze the data according to the “1:1 binding kinetics model”, and the binding kinetics parameters of each antibody to IL-33 were obtained.
(§2) The experimental methods were referred to Example 14, in which the antigens cynomolgus IL-33 protein (purchased from Sino catalog number 90912-CNAE) and mouse IL-33 protein (purchased from R&D, 3626-ML-010/CF) were used, and human IL-33 protein was used as the control. Both 864F3-Hu4 and 874F7-Hu1 cross-react with cynomolgus IL-33 protein, and are consistent with the characteristics of each antibody binding to human IL-33 protein.
(In general: Surface plasmon resonance follows binding to a sensor surface in real time, without labels.)

The target of test [2] is T2, Cynomolgus IL-33-his (cynomolgus, UniProt A0A2K5W3I1 112-269, biotinylated in the ELISA of Example 6).
T2 construct: Bought protein; also called cynomolgus IL-33 protein; Cynomolgus monkeys IL-33
T2 sequence: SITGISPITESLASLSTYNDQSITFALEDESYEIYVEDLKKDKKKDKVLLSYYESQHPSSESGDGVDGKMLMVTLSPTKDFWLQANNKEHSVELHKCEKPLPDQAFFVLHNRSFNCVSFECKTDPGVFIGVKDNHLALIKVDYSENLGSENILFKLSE
Described as above. The protocol: as §1, §2

Test [3] addresses T3, Mouse IL-33 protein (mouse, UniProt Q8BVZ5 109-266).
T3 construct: Bought protein
T3 sequence (looked up): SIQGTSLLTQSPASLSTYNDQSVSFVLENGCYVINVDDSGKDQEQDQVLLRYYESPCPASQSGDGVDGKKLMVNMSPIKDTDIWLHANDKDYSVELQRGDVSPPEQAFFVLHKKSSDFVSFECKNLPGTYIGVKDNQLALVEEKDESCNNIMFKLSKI
Described as above. The protocol: as §1, §2

The target of test [4] is T1, Human IL-33-his. Description: SPR Biacore 8K, antibody captured on Protein A/G chip, IL-33-his as analyte, 1:1 model. The protocol:
as §1

Test [5] deals with T1, Human IL-33-his. Put plainly: cell-based or functional assay.
In test [6] the target is T1, Human IL-33-his. Put plainly: ELISA as Example 9, IL-33-his-biotin on streptavidin plate. For orientation: An ELISA detects its analyte on a solid surface through an enzyme-linked reagent.
In test [7] the target is T1, Human IL-33-his. Put plainly: SPR Biacore 8K as Example 14, antibody captured, antigen as analyte; human IL-33 as the control in the cross-reactivity run of Table 3. The protocol:
as §1
The experimental methods were referred to Example 14, in which the antigens cynomolgus IL-33 protein (purchased from Sino catalog number 90912-CNAE) and mouse IL-33 protein (purchased from R&D, 3626-ML-010/CF) were used, and human IL-33 protein was used as the control. […]

For test [8], the target named is T1, Human IL-33-his. Description: competition ELISA as Example 10, ST2-Fc on plate; competitor ST2-Fc. On the procedure:
(§3) ST2-Fc protein was diluted to 1 μg/mL with ELISA coating solution to coat ELISA plate with 100 μL/well. The plate was placed in a wet box at 4° C. for 16 h for coating. The ELISA plate was washed 3 times with PBST, and then was blocked with 2% BSA prepared in PBS at 200 μL/well at room temperature for 2 h. The plate was washed once with PBST, and was patted dry to remove the excess blocking solution. Each monoclonal antibody was diluted with 1% BSA prepared in PBST in a 3-fold gradient. The highest concentration of antibody was 10 μg/mL, and the antibody was diluted for 11 gradients. The diluted antibody was mixed 1:1 with 10 ng/ml IL-33-his-biotin, and then the mixture was added into the ELISA well at 100 μL/well. The plate was incubated at room temperature for 1 h. Each concentration was added to duplicate wells in parallel (maximum final concentration of antibody was […], final concentration of IL-33-his-biotin was 5 ng/mL). Unbound or non-specifically bound primary antibodies were washed out. According to the instructions of the antibody, HRP labeled streptavidin secondary antibody was diluted to an appropriate concentration with antibody diluent solution, then it was added to ELISA plate with 100 μL/well, and was incubated at room temperature for 1 h. The ELISA plate was washed with PBST for 5 times, and was patted dry on absorbent paper to remove excess liquid. TMB developing solution was added with 100 μL/well for development to an appropriate degree. 2M H₂SO₄ was added with 70 μL/well to terminate development, and the absorbance was measured at 450 nm on a multifunctional microplate reader. The data were analyzed.
The blocking effect of the above humanized antibodies on the binding of IL-33 to its receptor ST2 was determined by the ELISA method, and the relevant experimental methods were referred to Example 10.

Test [9] deals with T1, Human IL-33-his. Put plainly: ELISA as Example 9, IL-33-his-biotin on streptavidin plate; run with Hu3, Hu4, Hu5. The protocol: (§4) SA protein was diluted to 2 μg/mL to coat ELISA plate at 100 μL/well overnight at 4° C. The plate was washed with PBST (PBS containing 0.05% Tween20) for 3 times, and blocked with 2% BSA prepared in PBS at 200 μL/well, at room temperature for 2 h. After the plate was washed twice with PBST, IL-33-his-biotin protein was diluted to 1 μg/mL with 1% BSA prepared in PBST, and was added to ELISA plate at 100 μL/well. The plate was incubated at room temperature for 1 h, and each monoclonal antibody was diluted with 1% BSA prepared in PBST in a 3-fold gradient. The highest concentration of antibody was 10 μg/mL, and the antibody was diluted for 12 gradients. Each diluted monoclonal antibody was added to ELISA wells with 100 μL/well, and the plate was incubated at room temperature for 1 h. Each sample was added to duplicate wells in parallel. The plate was washed with PBST for 3 times, and HRP-anti human IgG Fc secondary antibody prepared with PBST was diluted at an appropriate ratio, and was added to ELISA wells at 100 μL/well. The plate was incubated at room temperature for 1 h. After washing with PBST for 3 times, TMB developing solution was added at 100 μL/well. […] Each reaction solution was shaken uniformly and OD450 nm was read on a microplate reader. The data was analyzed and EC₅₀ was calculated.

Test [10] has as its target T1, Human IL-33-his. Put plainly: ELISA, IL-33-his-biotin on streptavidin plate, anti-human Fc detection. On the procedure: SA protein was diluted to 2 μg/mL to coat ELISA plate at 100 μL/well overnight at 4° C. The plate was washed with PBST (PBS containing 0.05% Tween20) for 3 times, and blocked with 2% BSA prepared in PBS at 200 μL/well, at room temperature for 2 h. After the plate was washed twice with PBST, IL-33-his-biotin protein was diluted to 1 μg/mL with 1% BSA prepared in PBST, and was added to ELISA plate at 100 μL/well. The plate was incubated at room temperature for 1 h, and each monoclonal antibody was diluted with 1% BSA prepared in PBST in a 3-fold gradient. The highest concentration of antibody was 10 μg/mL, and the antibody was diluted for 12 gradients. Each diluted monoclonal antibody was added to ELISA wells with 100 μL/well, and the plate was incubated at room temperature for 1 h. Each sample was added to duplicate wells in parallel. The plate was washed with PBST for 3 times, and HRP-anti human IgG Fc secondary antibody prepared with PBST was diluted at an appropriate ratio, and was added to ELISA wells at 100 μL/well. The plate was incubated at room temperature for 1 h. After washing with PBST for 3 times, TMB developing solution was added at 100 μL/well. When the development met expectations, 2M H₂SO₄ was added to terminate the chromogenic reaction at 70 μL/well. Each reaction solution was shaken uniformly and OD450 nm was read on a microplate reader. The data was analyzed and EC₅₀ was calculated.

Test [11] has as its target T1, Human IL-33-his. Description: ELISA as Example 9, IL-33-his-biotin on streptavidin plate; run with HuG, Hu1, Hu2. On the procedure:
as §4

Test [12] addresses T1, Human IL-33-his. Put plainly: competition ELISA, antibody mixed with IL-33-his-biotin, ST2-Fc on plate; competitor ST2-Fc. The protocol:
as §3

Broadly, the koff is the rate constant with which the complex falls apart. Low readings indicate slow dissociation, high ones fast dissociation. For orientation: kon means a measure of how fast the partners come together. Low values mean slow association, high ones fast association. What is called Kd is the equilibrium constant for the complex coming apart. Read a high Kd as lower affinity. What is called EC50 is the concentration at which the effect is half-maximal. Low values mean a more potent agent, high ones a less potent agent. By IC50 is commonly meant the concentration needed to halve the response being measured. A higher IC50 goes with a need for much substance.

B1: 864F3-Hu4 (antibody, human IgG4 S228P, kappa, V domains shown)
VH: QVQLQESGPGLVKPSETLSLTCTVSGFSLSKYGVHWIRQPPGKGLEWIGVLRAGGTISYNSALMSRVTISEDISKSQVSLKLSSVTAADTAVYYCARDHYYYSSFGGFASWGQGTLVTVSS
VL: DIQMTQSPSSLSASVGDRVTITCLASQTIATWLAWYQQKPGKSPKLLIYAATRLADGVPSRFSGSGSGTDFTLTISSLQPEDFATYYCQQLYNTPYTFGQGTKVEIKR
notes: Humanized; also called humanized antibody 864F3-Hu4
In [1], B1 displayed a koff of 0.000149 s⁻¹ and a kon of 270000 M⁻¹ s⁻¹. In test [2], this molecule had a Kd of 0.637 nM, a koff of 0.000245 s⁻¹ and a kon of 385000 M⁻¹ s⁻¹. Also, in [3], the Kd is 190 nM, the koff was found to be 0.0205 s⁻¹ and the kon amounted to 108000 M⁻¹ s⁻¹. In [4], this molecule registered a dissociation constant (Kd) of 1.38 nM, a koff of 0.000447 s⁻¹ and a kon of 323000 M⁻¹ s⁻¹. Further, in [5], the “IC50 of inhibition of IFNγ secretion by NK cells induced by IL-33” value is 0.904 nM, the “IC50 of inhibition of IL-5 secretion of KU812 cells induced by IL-33” value was 27.6 nM, the “IC50 of inhibition of IL-13 secretion of KU812 cells induced by IL-33” value was determined as 14.7 nM and the “IC50 of the inhibitory effect on IL-6 expression in HUVEC cells induced by IL-33” value was 0.073 nM. For the same molecule, the “IC50 of the inhibitory effect on the IFN-γ secretion of PBMC induced by IL-33” value in test [5] amounted to 1.22 nM. The midpoint of the response in [6], the EC50, lay at 0.135 nM. This molecule came in with a Kd in test [7] of 0.552 nM. Moreover, in test [8], the IC50 was 0.512 nM.

B2: 864F3-ch2 (antibody, human IgG4 S228P, kappa, V domains shown)
VH: QVHLKESGPGLVAPSQSLSITCNVSGFSLSKYGVHWIRQTPGRGLDWLGVLRAGGTISYNSALMSRLSISEDISKSQVFLKMNDLQTDDSAIYFCARDHYYYSSFGGFASWGQGTLVTVSA
VL: DIQMTQSPASQSASLGESVTITCLASQTIATWLAWYQQKPGKSPQLLIYAATRLADGVPSRFSGSGSGTEFSFKISSLQAEDFVIYYCQQLYNTPYTFGGGTKLEIKR
notes: Chimeric: human IgG4 (S228P) and human kappa constant regions; also called chimeric antibody 864F3-ch2
In the case of B2, the EC50 in [9] amounted to 0.124 nM; in [10], 0.173 nM; in [11] it was 0.169 nM. For the same molecule, the IC50 in test [12] was determined as 0.58 nM.
